Source: patent US20190275084A1 (KYMAB, published 2019)
Values belong to the binder of their own block, whether it stands above or below them.

Assays:
[1] = target: T1, Recombinant Human OX40L (Leader sequence, Isoleucine Zipper and FLAG Sequence Included) (human); assay: SPR (ProteOn XPR36), apparent affinity, antibody captured on anti-mouse IgG, hOX40L at 256 nM, 1:1 model, 25 C
T1 construct: It was used biotinylated in the HTRF assays and unlabelled in SPR and in the IL-2 release assay; also called hOX40L; recombinant hOX40L
Description: (§1) SPR analysis was carried out using the ProteOn™ XPR36 Array System (BioRad). Anti-mouse IgG (GE Healthcare BR-1008-38) was immobilised on a GLM biosensor surface using amine coupling, the surface was then blocked using 1 M ethanolamine. Test antibodies were captured on this surface and recombinant hOX40L (human and rhesus) were used at a single concentration of 256 nM, binding sensorgrams were double referenced using a buffer injection (i.e. 0 nM) to remove baseline drift and injection artefacts. Apparent affinities for the OX40L-antibody interaction were determined using the 1:1 model inherent to the ProteOn XPR36 analysis software. The assay was run using HBS-EP (Teknova) as running buffer and carried out at 25° C.

[2] = target: T1, Recombinant Human OX40L (Leader …); assay: cell-based or functional assay
[3] = target: T1, Recombinant Human OX40L (Leader …); assay: HTRF ligand/receptor neutralisation: antibody titrated against biotinylated hOX40L; the blocked ligand is OX40RFc-AF647; streptavidin cryptate detection
Description: Fully human purified IgG or other inhibitor were tested in order to establish the clone potency as measured by IC₅₀ values in the assay. Antibodies recombinantly expressed and purified were titrated by diluting in HTRF assay buffer and 5 μL of this titration transferred to a white 384 well low volume non-binding surface polystyrene plate (Greiner). Biotinylated OX40L was diluted in HTRF assay buffer to a working concentration of 2.4 nM and 5 μL added. […] Streptavidin cryptate (CISBIO) was diluted in HTRF assay buffer to working concentration of 1:100 and 5 μL added to all wells of the plate. Plates were covered, protected from light and incubated at room temperature for 3 hrs prior to reading time resolved fluorescence at 620 nm and 665 nm emission wavelengths using an EnVision plate reader (Perkin Elmer). Data were analysed by calculating delta F as described in Equation 4 and percentage of receptor for each sample according to Equation 5 or in some cases Equation 6. IC₅₀ values were determined using GraphPad Prism software by curve fitting using a four-parameter logistic equation (Equation 7) (FIG. 1).

[4] = target: T2, Recombinant Rhesus OX40L (Leader Sequence, FLAG and Isoleucine zipper included) (Rhesus (Macaca mulatta)); assay: SPR (ProteOn XPR36), antibody captured, rhesus OX40L at 256 nM, 25 C; CNROR = cannot resolve off-rate
T2 construct: also called RhsOX40L; Rhesus monkey OX40L
Description: as §1

[5] = target: T1, Recombinant Human OX40L (Leader …); assay: HTRF receptor neutralisation: antibody titrated against biotinylated hOX40L and OX40RFc-AF647; mean +/- SEM of three experiments

T1 sequence (chain, as listed by the source limits assumed): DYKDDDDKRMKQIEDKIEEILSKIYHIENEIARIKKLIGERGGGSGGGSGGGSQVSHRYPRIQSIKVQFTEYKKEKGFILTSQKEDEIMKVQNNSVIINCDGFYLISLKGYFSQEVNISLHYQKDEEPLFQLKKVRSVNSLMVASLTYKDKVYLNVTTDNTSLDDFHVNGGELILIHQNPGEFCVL
T2 sequence (chain, as listed by the source limits assumed): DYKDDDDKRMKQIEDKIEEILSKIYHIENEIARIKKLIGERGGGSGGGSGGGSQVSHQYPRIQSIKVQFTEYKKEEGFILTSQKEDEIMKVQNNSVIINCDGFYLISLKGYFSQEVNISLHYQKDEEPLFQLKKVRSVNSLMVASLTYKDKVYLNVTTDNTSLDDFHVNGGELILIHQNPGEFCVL

B2: 10A07 (human) (antibody, V domains shown)
VH: EVQLVESGGVLVQPGGSLRLSCAASGFTFSSYIMTWVRQAPGKGLEWVSGISGSGGGTYYADSMKGRFTISRDNSKNTLYLQMNSLRVEDTAVYYCAKDRLGPITLVRGGYYYGMDVWGQGTTVTVSS
VL: DIQMTQSPSSLSASVGDRVTITCRASQSISDYLNWYQQKPGKAPKFLIYAASSLQSGVPSRFSGSGSGTDFTLTVSSLQPEDFATYYCQQSYSTPRTFGQGTRVEIKR
notes: also called 10A07 IgG4PE; 10A7 IgG4-PE
Primary T-cell Assay IC50 nM (recombinant OX40L induced IL2 release from primary human T-cells) [2]: 0.83 nM | IC50 (read off the curve) [3]: ~1 nM | binding result [4]: binds | IC50 [5]: 1.2 nM

B3: 10A07 (hybridoma) (antibody, V domains shown)
VH: B2 VH
VL: DIQMTQSPSSLSASVGDRVTITCRASQSISDYLNWYQQKPGKAPKFLIYAASSLQSGVPSRFSGSGSGTDFTLTVSSLQPEDFATYYCQQSYSTPRTFGQGTRVEIK
notes: Purified from hybridoma supernatant as a murine/human chimeric antibody (human variable domains, mouse constant regions); also called 10A7
binding result [4]: binds

B5: 2D10 (hybridoma) (antibody, V domains shown)
VH: EVQLVESGGGLVQPGGSLRLSCAASGFTFSNYAMNWVRQAPGKGLEWVSTISGSGGATRYADSVKGRFTISRDNSRNTVYLQMNSLRVEDTAVFYCTKDRLIMATVRGPYYYGMDVWGQGTTVTVSS
VL: DIQMTQSPSSLSASVGDRVTITCRASQSISSYLNWYQQKPGKAPNLLIYAASSLQSGVPSRFSGSGSETDFTLTISSLQPEDFATYYCQQSHSVSFTFGPGTKVDIK
notes: Purified from hybridoma supernatant as a murine/human chimeric antibody (human variable domains, mouse constant regions); also called 02D10
binding result [4]: binds

B6: 19H01 (hybridoma) (antibody, V domains shown)
VH: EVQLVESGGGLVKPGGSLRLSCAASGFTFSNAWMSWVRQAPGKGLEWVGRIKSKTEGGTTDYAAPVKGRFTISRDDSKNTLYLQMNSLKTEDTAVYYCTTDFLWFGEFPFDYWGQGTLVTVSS
VL: DIQMTQSPSSLSASVGDRVTITCRASQGISNYLAWYQQKPGKIPKLLIYAASTLQSGVPSRFSGSGSGTDFTLTISSLQPEDVATYYCQKYNSAPRTFGQGTKVEIK
notes: Purified from hybridoma supernatant as a murine/human chimeric antibody (human variable domains, mouse constant regions)
Kd [1]: 2.2 nM

Second part, the binder after the results:

Kd [1]: 5.3 nM
B1: 9H04 (hybridoma) (antibody, V domains shown)
VH: QVQLVESGGGLVKPGGSLRLSCAASRFTLSDYYMTWIRQAPGKGLEWVSYISSSGNTIYYADSVKGRFTISRDNAKNSLYLQMNSLRAEDTAVYYCARDLSGSYWDYYYGMDVWGQGTTVTVSS
VL: AIQLTQSPSSLSTSVGDRVTIACRASQGINNALAWYQQKPGKAPKLLIYDASSLESGVPSRFSGSGSGTDFTLTISSLQPEDFATYYCQQFNSYPRTFGQGTKVEIK
notes: Purified from hybridoma supernatant as a murine/human chimeric antibody (human variable domains, mouse constant regions); also called 09H04

Primary T-cell Assay IC50 nM (recombinant OX40L induced IL2 release from primary human T-cells) [2]: 0.81 nM | IC50 (read off the curve) [3]: ~0.8 nM | binding result [4]: binds | IC50 [5]: 0.75 nM
B4: 2D10 (human) (antibody, human IgG4 S228P, kappa, V domains shown)
VH: B5 VH
VL: DIQMTQSPSSLSASVGDRVTITCRASQSISSYLNWYQQKPGKAPNLLIYAASSLQSGVPSRFSGSGSETDFTLTISSLQPEDFATYYCQQSHSVSFTFGPGTKVDIKR
notes: Recombinant fully human IgG4-PE/kappa; also called 02D10 IgG4-PE; 2D10 IgG4PE
